Data: patent US20140023630A1 (REGENTS OF THE UNIVERSITY OF COLORADO A BODY CORPORATE, published 2014)

B1: human CBS deletion mutant Δ442-551 (enzyme)
chain: MPSETPQAEVGPTGCPHRSGPHSAKGSLEKGSPEDKEAKEPLWIRPDAPSRCTWQLGRPASESPHHHTAPAKSPKILPDILKKIGDTPMVRINKIGKKFGLKCELLAKCEFFNAGGSVKDRISLRMIEDAERDGTLKPGDTIIEPTSGNTGIGLALAAAVRGYRCIIVMPEKMSSEKVDVLRALGAEIVRTPTNARFDSPESHVGVAWRLKNEIPNSHILDQYRNASNPLAHYDTTADEILQQCDGKLDMLVASVGTGGTITGIARKLKEKCPGCRIIGVDPEGSILAEPEELNQTEQTTYEVEGIGYDFIPTVLDRTVVDKWFKSNDEEAFTFARMLIAQEGLLCGGSAGSTVAVAVKAAQELQEGQRCVVILPDSVRNYMTKFLSDRWMLQKGFLKEEDLTEKKPWWWHLRVQELGLSAPLTVLPTITCGHTIEILREK
notes: No fusion partner, E. coli lysate; Reported as a dimer
B2: human CBS deletion mutant Δ544-551 (enzyme)
chain: MPSETPQAEVGPTGCPHRSGPHSAKGSLEKGSPEDKEAKEPLWIRPDAPSRCTWQLGRPASESPHHHTAPAKSPKILPDILKKIGDTPMVRINKIGKKFGLKCELLAKCEFFNAGGSVKDRISLRMIEDAERDGTLKPGDTIIEPTSGNTGIGLALAAAVRGYRCIIVMPEKMSSEKVDVLRALGAEIVRTPTNARFDSPESHVGVAWRLKNEIPNSHILDQYRNASNPLAHYDTTADEILQQCDGKLDMLVASVGTGGTITGIARKLKEKCPGCRIIGVDPEGSILAEPEELNQTEQTTYEVEGIGYDFIPTVLDRTVVDKWFKSNDEEAFTFARMLIAQEGLLCGGSAGSTVAVAVKAAQELQEGQRCVVILPDSVRNYMTKFLSDRWMLQKGFLKEEDLTEKKPWWWHLRVQELGLSAPLTVLPTITCGHTIEILREKGFDQAPVVDEAGVILGMVTLGNMLSSLLAGKVQPSDQVGKVIYKQFKQIRLTDTLGRLSHILEMDHFALVVHEQIQYHSTGKSSQRQMVFGVVTAIDLLNFV
notes: No fusion partner, E. coli lysate; Reported as a tetramer
B3: human CBS deletion mutant Δ489-551 (enzyme)
chain: MPSETPQAEVGPTGCPHRSGPHSAKGSLEKGSPEDKEAKEPLWIRPDAPSRCTWQLGRPASESPHHHTAPAKSPKILPDILKKIGDTPMVRINKIGKKFGLKCELLAKCEFFNAGGSVKDRISLRMIEDAERDGTLKPGDTIIEPTSGNTGIGLALAAAVRGYRCIIVMPEKMSSEKVDVLRALGAEIVRTPTNARFDSPESHVGVAWRLKNEIPNSHILDQYRNASNPLAHYDTTADEILQQCDGKLDMLVASVGTGGTITGIARKLKEKCPGCRIIGVDPEGSILAEPEELNQTEQTTYEVEGIGYDFIPTVLDRTVVDKWFKSNDEEAFTFARMLIAQEGLLCGGSAGSTVAVAVKAAQELQEGQRCVVILPDSVRNYMTKFLSDRWMLQKGFLKEEDLTEKKPWWWHLRVQELGLSAPLTVLPTITCGHTIEILREKGFDQAPVVDEAGVILGMVTLGNMLSSLLAGKVQPSDQVGKVIYKQFK
notes: as for B1
B4: human CBS deletion mutant Δ1-70 (enzyme)
chain: AKSPKILPDILKKIGDTPMVRINKIGKKFGLKCELLAKCEFFNAGGSVKDRISLRMIEDAERDGTLKPGDTIIEPTSGNTGIGLALAAAVRGYRCIIVMPEKMSSEKVDVLRALGAEIVRTPTNARFDSPESHVGVAWRLKNEIPNSHILDQYRNASNPLAHYDTTADEILQQCDGKLDMLVASVGTGGTITGIARKLKEKCPGCRIIGVDPEGSILAEPEELNQTEQTTYEVEGIGYDFIPTVLDRTVVDKWFKSNDEEAFTFARMLIAQEGLLCGGSAGSTVAVAVKAAQELQEGQRCVVILPDSVRNYMTKFLSDRWMLQKGFLKEEDLTEKKPWWWHLRVQELGLSAPLTVLPTITCGHTIEILREKGFDQAPVVDEAGVILGMVTLGNMLSSLLAGKVQPSDQVGKVIYKQFKQIRLTDTLGRLSHILEMDHFALVVHEQIQYHSTGKSSQRQMVFGVVTAIDLLNFVAAQERDQK
notes: The sense primer brings in an Nco I site at the 5' end; No fusion partner, E. coli lysate; Reported as a tetramer; also called pKK CBS Δ1-70
B5: human CBS deletion mutant Δ551 (enzyme)
chain: MPSETPQAEVGPTGCPHRSGPHSAKGSLEKGSPEDKEAKEPLWIRPDAPSRCTWQLGRPASESPHHHTAPAKSPKILPDILKKIGDTPMVRINKIGKKFGLKCELLAKCEFFNAGGSVKDRISLRMIEDAERDGTLKPGDTIIEPTSGNTGIGLALAAAVRGYRCIIVMPEKMSSEKVDVLRALGAEIVRTPTNARFDSPESHVGVAWRLKNEIPNSHILDQYRNASNPLAHYDTTADEILQQCDGKLDMLVASVGTGGTITGIARKLKEKCPGCRIIGVDPEGSILAEPEELNQTEQTTYEVEGIGYDFIPTVLDRTVVDKWFKSNDEEAFTFARMLIAQEGLLCGGSAGSTVAVAVKAAQELQEGQRCVVILPDSVRNYMTKFLSDRWMLQKGFLKEEDLTEKKPWWWHLRVQELGLSAPLTVLPTITCGHTIEILREKGFDQAPVVDEAGVILGMVTLGNMLSSLLAGKVQPSDQVGKVIYKQFKQIRLTDTLGRLSHILEMDHFALVVHEQIQYHSTGKSSQRQMVFGVVTAIDLLNFVAAQERDQ
notes: Lacks the C-terminal lysine; No fusion partner, E. coli lysate; Reported as a tetramer; also called pKK CBS Δ551
B6: human CBS deletion mutant Δ414-551 (enzyme)
chain: MPSETPQAEVGPTGCPHRSGPHSAKGSLEKGSPEDKEAKEPLWIRPDAPSRCTWQLGRPASESPHHHTAPAKSPKILPDILKKIGDTPMVRINKIGKKFGLKCELLAKCEFFNAGGSVKDRISLRMIEDAERDGTLKPGDTIIEPTSGNTGIGLALAAAVRGYRCIIVMPEKMSSEKVDVLRALGAEIVRTPTNARFDSPESHVGVAWRLKNEIPNSHILDQYRNASNPLAHYDTTADEILQQCDGKLDMLVASVGTGGTITGIARKLKEKCPGCRIIGVDPEGSILAEPEELNQTEQTTYEVEGIGYDFIPTVLDRTVVDKWFKSNDEEAFTFARMLIAQEGLLCGGSAGSTVAVAVKAAQELQEGQRCVVILPDSVRNYMTKFLSDRWMLQKGFLKEEDLTEKKPWWWHLR
notes: Lacks the entire C-terminal regulatory region; No fusion partner, E. coli lysate; Reported as a dimer
B7: human CBS double deletion mutant Δ1-70 Δ401-551 (expressed without fusion partner) (enzyme)
chain: AKSPKILPDILKKIGDTPMVRINKIGKKFGLKCELLAKCEFFNAGGSVKDRISLRMIEDAERDGTLKPGDTIIEPTSGNTGIGLALAAAVRGYRCIIVMPEKMSSEKVDVLRALGAEIVRTPTNARFDSPESHVGVAWRLKNEIPNSHILDQYRNASNPLAHYDTTADEILQQCDGKLDMLVASVGTGGTITGIARKLKEKCPGCRIIGVDPEGSILAEPEELNQTEQTTYEVEGIGYDFIPTVLDRTVVDKWFKSNDEEAFTFARMLIAQEGLLCGGSAGSTVAVAVKAAQELQEGQRCVVILPDSVRNYMTKFLSDRWMLQKGFLKEE
notes: pKK construct; E. coli lysate; Reported as a dimer; also called CBS DD
B8: human CBS deletion mutant Δ497-551 (enzyme)
chain: MPSETPQAEVGPTGCPHRSGPHSAKGSLEKGSPEDKEAKEPLWIRPDAPSRCTWQLGRPASESPHHHTAPAKSPKILPDILKKIGDTPMVRINKIGKKFGLKCELLAKCEFFNAGGSVKDRISLRMIEDAERDGTLKPGDTIIEPTSGNTGIGLALAAAVRGYRCIIVMPEKMSSEKVDVLRALGAEIVRTPTNARFDSPESHVGVAWRLKNEIPNSHILDQYRNASNPLAHYDTTADEILQQCDGKLDMLVASVGTGGTITGIARKLKEKCPGCRIIGVDPEGSILAEPEELNQTEQTTYEVEGIGYDFIPTVLDRTVVDKWFKSNDEEAFTFARMLIAQEGLLCGGSAGSTVAVAVKAAQELQEGQRCVVILPDSVRNYMTKFLSDRWMLQKGFLKEEDLTEKKPWWWHLRVQELGLSAPLTVLPTITCGHTIEILREKGFDQAPVVDEAGVILGMVTLGNMLSSLLAGKVQPSDQVGKVIYKQFKQIRLTDTL
notes: as for B1
B9: human CBS deletion mutant Δ1-39 (enzyme)
chain: EPLWIRPDAPSRCTWQLGRPASESPHHHTAPAKSPKILPDILKKIGDTPMVRINKIGKKFGLKCELLAKCEFFNAGGSVKDRISLRMIEDAERDGTLKPGDTIIEPTSGNTGIGLALAAAVRGYRCIIVMPEKMSSEKVDVLRALGAEIVRTPTNARFDSPESHVGVAWRLKNEIPNSHILDQYRNASNPLAHYDTTADEILQQCDGKLDMLVASVGTGGTITGIARKLKEKCPGCRIIGVDPEGSILAEPEELNQTEQTTYEVEGIGYDFIPTVLDRTVVDKWFKSNDEEAFTFARMLIAQEGLLCGGSAGSTVAVAVKAAQELQEGQRCVVILPDSVRNYMTKFLSDRWMLQKGFLKEEDLTEKKPWWWHLRVQELGLSAPLTVLPTITCGHTIEILREKGFDQAPVVDEAGVILGMVTLGNMLSSLLAGKVQPSDQVGKVIYKQFKQIRLTDTLGRLSHILEMDHFALVVHEQIQYHSTGKSSQRQMVFGVVTAIDLLNFVAAQERDQK
notes: The sense primer brings in an Nco I site at the 5' end; No fusion partner, E. coli lysate; Reported as a tetramer; also called pKK CBS Δ1-39

Target: the molecule itself
Assay: self-association; native PAGE and Western blot of E. coli lysate soluble fraction
Procedure: Western blot analysis of crude cell lysates under both denaturing and native conditions was performed as described previously (Janosik, 2001, supra) with some modifications. Soluble fractions of E. coli lysates containing the expressed mutant proteins were mixed with sample buffer and run on a 6% native PAGE without a stacking gel. The final composition of the sample buffer was: 50 mM Tris-HCl, pH 8.9, 1 mM DTT, 10% glycerol, 0.001% bromphenol blue. Detection of heme was performed using a previously described method that relies on heme peroxidase activity (Vargas et al., 1993, Anal. Biochem. 209(2), 323-6).

Binding result, binds:
B1
B2
B3
B4
B5
B6
B7
B8
B9
